This is an account of results in patent publication US6277622.

In this assay the target is recombinant tropoelastin (human) (UniProt P15502).

Turning to “recombinant human lysyl oxidase derived from the plasmid p3dL^m2 (enzyme)”, the percentage of total lysine in the precipitate (amino acid analysis) after 2 hrs at 37 C; formation of insoluble protein was 2.5 % lysine.
